According to patent US20180155451A1 (published 2018):

T1: FcγRIIa R (extracellular domain with a His tag at the C terminus) (human, UniProt P12318 34-217)
T1 construct: extracellular domain; expressed in FreeStyle293 cells; also called FcgRIIa R; FcγRIIa type R; not shown: His tag at the C terminus
T1 sequence (looked up): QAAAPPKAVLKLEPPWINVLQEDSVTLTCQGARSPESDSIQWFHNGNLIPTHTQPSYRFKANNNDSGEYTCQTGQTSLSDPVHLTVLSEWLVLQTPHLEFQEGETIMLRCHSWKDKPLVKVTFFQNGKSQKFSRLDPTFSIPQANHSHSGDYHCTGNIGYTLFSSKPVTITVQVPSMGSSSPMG

B1: GpH7-B3 variant E269_04F/GpL16-k0 (antibody, human IgG1, kappa)
heavy: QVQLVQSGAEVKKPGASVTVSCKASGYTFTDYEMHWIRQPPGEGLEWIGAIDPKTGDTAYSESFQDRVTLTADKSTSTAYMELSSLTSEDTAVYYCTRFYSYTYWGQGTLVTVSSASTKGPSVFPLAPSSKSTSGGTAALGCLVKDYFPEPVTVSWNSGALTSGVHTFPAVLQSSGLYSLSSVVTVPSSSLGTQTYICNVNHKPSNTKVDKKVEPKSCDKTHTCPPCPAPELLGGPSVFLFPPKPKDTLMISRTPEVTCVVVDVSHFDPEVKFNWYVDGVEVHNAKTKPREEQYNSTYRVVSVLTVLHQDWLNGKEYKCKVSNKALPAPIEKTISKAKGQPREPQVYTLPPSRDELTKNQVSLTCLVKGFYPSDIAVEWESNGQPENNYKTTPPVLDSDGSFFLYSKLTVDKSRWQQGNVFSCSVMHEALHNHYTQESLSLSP
light: DIVMTQSPLSLPVTPGEPASISCQASESLVHSNRNTYLHWYLQKPGQSPQLLIYKVSNRFSGVPDRFSGSGSGTDFTLKISRVEAEDVGVYYCSQNTHVPPTFGQGTKVEIERTVAAPSVFIFPPSDEQLKSGTASVVCLLNNFYPREAKVQWKVDNALQSGNSQESVTEQDSKDSTYSLSSTLTLSKADYEKHKVYACEVTHQGLSSPVTKSFNRGEC
notes: homodimerized; also called Ho Ab E269_04F
B2: GpH7-B3 variant A327_03V/GpL16-k0 (antibody, human IgG1, kappa)
heavy: not shown
light: B1 light
notes: homodimerized; also called Ho Ab A327_03V
B3: GpH7-B3 variant A327_06M/GpL16-k0 (antibody, human IgG1, kappa)
heavy: not shown
light: B1 light
notes: homodimerized; also called Ho Ab A327_06M
B4: GpH7-B3 variant A327_07I/GpL16-k0 (antibody, human IgG1, kappa)
heavy: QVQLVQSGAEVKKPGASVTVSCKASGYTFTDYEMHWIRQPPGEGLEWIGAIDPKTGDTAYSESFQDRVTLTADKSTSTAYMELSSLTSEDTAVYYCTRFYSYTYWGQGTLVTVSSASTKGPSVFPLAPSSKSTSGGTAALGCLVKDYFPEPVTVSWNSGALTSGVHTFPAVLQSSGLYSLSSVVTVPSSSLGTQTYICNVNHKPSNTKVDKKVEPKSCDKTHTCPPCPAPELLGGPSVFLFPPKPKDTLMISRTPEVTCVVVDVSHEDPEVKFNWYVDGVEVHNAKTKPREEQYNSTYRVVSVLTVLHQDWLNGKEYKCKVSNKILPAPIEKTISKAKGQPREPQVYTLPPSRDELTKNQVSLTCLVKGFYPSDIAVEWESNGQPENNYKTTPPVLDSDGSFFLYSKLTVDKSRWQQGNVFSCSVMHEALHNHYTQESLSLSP
light: B1 light
notes: homodimerized; also called Ho Ab A327_07I
B5: GpH7-B3 variant A327_09D/GpL16-k0 (antibody, human IgG1, kappa)
heavy: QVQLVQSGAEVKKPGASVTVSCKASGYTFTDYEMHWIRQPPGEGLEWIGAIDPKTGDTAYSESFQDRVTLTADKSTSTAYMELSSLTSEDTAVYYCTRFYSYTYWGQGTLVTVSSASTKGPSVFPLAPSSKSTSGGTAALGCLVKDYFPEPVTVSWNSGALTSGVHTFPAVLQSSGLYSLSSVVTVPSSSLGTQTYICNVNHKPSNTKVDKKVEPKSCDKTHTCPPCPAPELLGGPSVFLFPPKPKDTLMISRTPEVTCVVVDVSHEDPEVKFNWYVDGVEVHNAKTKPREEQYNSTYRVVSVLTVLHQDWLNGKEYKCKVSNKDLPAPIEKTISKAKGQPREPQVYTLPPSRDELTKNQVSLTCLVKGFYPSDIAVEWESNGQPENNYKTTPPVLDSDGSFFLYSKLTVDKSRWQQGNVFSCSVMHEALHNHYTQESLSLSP
light: B1 light
notes: homodimerized; also called Ho Ab A327_09D
B6: GpH7-B3 variant A327_10E/GpL16-k0 (antibody, human IgG1, kappa)
heavy: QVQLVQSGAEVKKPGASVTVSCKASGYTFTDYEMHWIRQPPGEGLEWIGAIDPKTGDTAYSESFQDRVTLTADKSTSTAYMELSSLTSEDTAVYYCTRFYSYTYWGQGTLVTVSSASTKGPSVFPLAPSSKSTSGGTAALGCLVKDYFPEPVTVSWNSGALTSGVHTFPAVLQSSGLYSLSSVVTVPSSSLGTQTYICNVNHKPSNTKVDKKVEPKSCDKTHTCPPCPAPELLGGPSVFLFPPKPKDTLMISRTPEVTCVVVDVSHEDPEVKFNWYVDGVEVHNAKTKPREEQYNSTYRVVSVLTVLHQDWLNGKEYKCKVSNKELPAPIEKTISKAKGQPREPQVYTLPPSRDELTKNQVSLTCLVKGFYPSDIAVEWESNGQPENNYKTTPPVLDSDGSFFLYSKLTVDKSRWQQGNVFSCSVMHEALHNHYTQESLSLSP
light: B1 light
notes: homodimerized; also called Ho Ab A327_10E
B7: GpH7-B3 variant A327_13S/GpL16-k0 (antibody, human IgG1, kappa)
heavy: not shown
light: B1 light
notes: homodimerized; also called Ho Ab A327_13S
B8: GpH7-B3 variant A330_05P/GpL16-k0 (antibody, human IgG1, kappa)
heavy: not shown
light: B1 light
notes: homodimerized; also called Ho Ab A330_05P
B9: GpH7-B3 variant A330_08L/GpL16-k0 (antibody, human IgG1, kappa)
heavy: not shown
light: B1 light
notes: homodimerized; also called Ho Ab A330_08L; GpH7-B3-20-08L/GpL16-k0
B10: GpH7-B3 variant A330_09D/GpL16-k0 (antibody, human IgG1, kappa)
heavy: not shown
light: B1 light
notes: homodimerized; also called Ho Ab A330_09D
B11: GpH7-B3 variant A330_11K/GpL16-k0 (antibody, human IgG1, kappa)
heavy: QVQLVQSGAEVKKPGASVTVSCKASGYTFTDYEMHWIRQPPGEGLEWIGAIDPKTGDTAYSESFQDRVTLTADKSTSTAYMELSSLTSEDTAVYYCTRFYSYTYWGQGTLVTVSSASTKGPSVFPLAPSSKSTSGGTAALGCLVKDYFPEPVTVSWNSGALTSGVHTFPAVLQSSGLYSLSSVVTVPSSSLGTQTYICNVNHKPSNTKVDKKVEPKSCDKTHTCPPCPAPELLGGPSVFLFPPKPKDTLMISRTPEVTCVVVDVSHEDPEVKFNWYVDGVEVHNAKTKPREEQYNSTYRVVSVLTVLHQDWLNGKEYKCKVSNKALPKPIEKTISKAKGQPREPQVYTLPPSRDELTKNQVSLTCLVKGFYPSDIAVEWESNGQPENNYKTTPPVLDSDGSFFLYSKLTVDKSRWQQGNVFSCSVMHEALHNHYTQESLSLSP
light: B1 light
notes: homodimerized; also called Ho Ab A330_11K
B12: GpH7-B3 variant A330_14T/GpL16-k0 (antibody, human IgG1, kappa)
heavy: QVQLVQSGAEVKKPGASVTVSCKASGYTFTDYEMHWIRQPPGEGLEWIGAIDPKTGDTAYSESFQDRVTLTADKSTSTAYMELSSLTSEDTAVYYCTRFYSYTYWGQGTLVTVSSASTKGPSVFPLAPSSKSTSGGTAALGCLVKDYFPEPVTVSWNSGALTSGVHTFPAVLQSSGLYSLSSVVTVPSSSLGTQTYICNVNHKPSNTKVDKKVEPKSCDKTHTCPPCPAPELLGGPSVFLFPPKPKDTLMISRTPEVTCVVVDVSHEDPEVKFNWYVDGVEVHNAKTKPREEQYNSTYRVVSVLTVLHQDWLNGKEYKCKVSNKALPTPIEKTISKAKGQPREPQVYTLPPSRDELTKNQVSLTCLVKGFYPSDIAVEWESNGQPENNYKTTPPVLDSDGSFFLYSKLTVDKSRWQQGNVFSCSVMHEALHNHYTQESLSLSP
light: B1 light
notes: homodimerized; also called Ho Ab A330_14T
B13: GpH7-B3 variant A330_16H/GpL16-k0 (antibody, human IgG1, kappa)
heavy: not shown
light: B1 light
notes: homodimerized; also called Ho Ab A330_16H
B14: GpH7-B3 variant E269_01G/GpL16-k0 (antibody, human IgG1, kappa)
heavy: not shown
light: B1 light
notes: homodimerized; also called Ho Ab E269_01G
B15: GpH7-B3 variant E269_02A/GpL16-k0 (antibody, human IgG1, kappa)
heavy: not shown
light: B1 light
notes: homodimerized; also called Ho Ab E269_02A
B16: GpH7-B3 variant E269_03V/GpL16-k0 (antibody, human IgG1, kappa)
heavy: not shown
light: B1 light
notes: homodimerized; also called Ho Ab E269_03V
B17: GpH7-B3 variant E269_05P/GpL16-k0 (antibody, human IgG1, kappa)
heavy: not shown
light: B1 light
notes: homodimerized; also called Ho Ab E269_05P
B18: GpH7-B3 variant E269_06M/GpL16-k0 (antibody, human IgG1, kappa)
heavy: not shown
light: B1 light
notes: homodimerized; also called Ho Ab E269_06M
B19: GpH7-B3 variant E269_07I/GpL16-k0 (antibody, human IgG1, kappa)
heavy: not shown
light: B1 light
notes: homodimerized; also called Ho Ab E269_07I
B20: GpH7-B3 variant E269_08L/GpL16-k0 (antibody, human IgG1, kappa)
heavy: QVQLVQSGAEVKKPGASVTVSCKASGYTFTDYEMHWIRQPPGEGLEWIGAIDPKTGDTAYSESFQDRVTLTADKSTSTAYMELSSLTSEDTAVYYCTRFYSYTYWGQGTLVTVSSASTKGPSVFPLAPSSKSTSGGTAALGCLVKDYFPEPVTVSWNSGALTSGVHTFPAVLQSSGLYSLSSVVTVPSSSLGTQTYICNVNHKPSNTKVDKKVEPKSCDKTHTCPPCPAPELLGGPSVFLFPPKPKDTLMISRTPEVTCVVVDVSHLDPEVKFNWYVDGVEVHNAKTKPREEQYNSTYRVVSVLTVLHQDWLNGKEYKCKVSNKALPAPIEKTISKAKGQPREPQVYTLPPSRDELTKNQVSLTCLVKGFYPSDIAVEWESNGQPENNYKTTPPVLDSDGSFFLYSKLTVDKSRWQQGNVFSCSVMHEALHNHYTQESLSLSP
light: B1 light
notes: homodimerized; also called Ho Ab E269_08L
B21: GpH7-B3 variant E269_09D/GpL16-k0 (antibody, human IgG1, kappa)
heavy: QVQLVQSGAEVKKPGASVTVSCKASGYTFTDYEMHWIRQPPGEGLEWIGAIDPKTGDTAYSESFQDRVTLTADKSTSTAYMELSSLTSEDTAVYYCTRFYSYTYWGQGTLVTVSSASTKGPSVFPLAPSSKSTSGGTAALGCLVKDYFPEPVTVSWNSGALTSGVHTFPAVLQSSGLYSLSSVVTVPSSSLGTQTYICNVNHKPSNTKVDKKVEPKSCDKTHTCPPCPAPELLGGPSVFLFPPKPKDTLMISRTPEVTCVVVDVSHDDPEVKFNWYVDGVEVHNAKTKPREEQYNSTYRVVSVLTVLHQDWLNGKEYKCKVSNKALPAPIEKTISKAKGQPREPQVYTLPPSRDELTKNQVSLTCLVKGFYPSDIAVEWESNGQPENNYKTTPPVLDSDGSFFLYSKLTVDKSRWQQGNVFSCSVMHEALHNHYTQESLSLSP
light: B1 light
notes: homodimerized; also called Ho Ab E269_09D
B22: GpH7-B3 variant E269_13S/GpL16-k0 (antibody, human IgG1, kappa)
heavy: not shown
light: B1 light
notes: homodimerized; also called Ho Ab E269_13S
B23: GpH7-B3 variant E269_14T/GpL16-k0 (antibody, human IgG1, kappa)
heavy: not shown
light: B1 light
notes: homodimerized; also called Ho Ab E269_14T
B24: GpH7-B3 variant E269_15Y/GpL16-k0 (antibody, human IgG1, kappa)
heavy: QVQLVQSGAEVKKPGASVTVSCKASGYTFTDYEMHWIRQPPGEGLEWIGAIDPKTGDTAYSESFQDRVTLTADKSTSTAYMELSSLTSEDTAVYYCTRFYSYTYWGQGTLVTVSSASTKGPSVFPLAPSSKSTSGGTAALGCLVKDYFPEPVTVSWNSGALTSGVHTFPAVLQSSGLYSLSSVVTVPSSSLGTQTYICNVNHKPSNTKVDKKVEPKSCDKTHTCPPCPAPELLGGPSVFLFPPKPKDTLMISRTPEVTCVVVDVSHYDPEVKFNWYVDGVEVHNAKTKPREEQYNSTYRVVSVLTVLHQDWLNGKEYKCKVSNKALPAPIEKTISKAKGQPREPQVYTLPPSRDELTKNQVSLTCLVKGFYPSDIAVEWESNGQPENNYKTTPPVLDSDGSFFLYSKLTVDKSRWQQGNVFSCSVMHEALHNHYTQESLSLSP
light: B1 light
notes: homodimerized; also called Ho Ab E269_15Y
B25: GpH7-B3 variant E269_16H/GpL16-k0 (antibody, human IgG1, kappa)
heavy: not shown
light: B1 light
notes: homodimerized; also called Ho Ab E269_16H
B26: GpH7-B3 variant E269_18N/GpL16-k0 (antibody, human IgG1, kappa)
heavy: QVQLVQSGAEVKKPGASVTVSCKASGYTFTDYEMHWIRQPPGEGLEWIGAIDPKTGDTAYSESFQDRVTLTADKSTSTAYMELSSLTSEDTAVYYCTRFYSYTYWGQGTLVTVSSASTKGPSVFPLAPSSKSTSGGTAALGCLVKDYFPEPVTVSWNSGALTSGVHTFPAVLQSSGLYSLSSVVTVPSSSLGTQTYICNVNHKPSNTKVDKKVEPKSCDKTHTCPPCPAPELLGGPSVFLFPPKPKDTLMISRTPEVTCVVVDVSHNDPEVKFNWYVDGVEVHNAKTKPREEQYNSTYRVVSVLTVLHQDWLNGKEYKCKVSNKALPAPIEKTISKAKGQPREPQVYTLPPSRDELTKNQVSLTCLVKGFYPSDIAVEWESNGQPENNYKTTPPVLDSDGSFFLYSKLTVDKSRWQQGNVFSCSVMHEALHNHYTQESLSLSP
light: B1 light
notes: homodimerized; also called Ho Ab E269_18N
B27: GpH7-A5/GpH7-B3 variant S267_19Q/GpL16-k0 (antibody, human IgG1, kappa)
heavy 1: not shown
heavy 2: not shown
light: B1 light
notes: heterodimerized; mutation in one H chain; also called He Ab
B28: GpH7-A5/GpH7-B3 variant S298_08L/GpL16-k0 (antibody, human IgG1, kappa)
heavy 1: not shown
heavy 2: not shown
light: B1 light
notes: as for B27
B29: GpH7-A5/GpH7-B3 variant S324_06M/GpL16-k0 (antibody, human IgG1, kappa)
heavy 1: not shown
heavy 2: not shown
light: B1 light
notes: as for B27
B30: GpH7-A5/GpH7-B3 variant S337_03V/GpL16-k0 (antibody, human IgG1, kappa)
heavy 1: not shown
heavy 2: not shown
light: B1 light
notes: as for B27
B31: GpH7-A5/GpH7-B3 variant S337_06M/GpL16-k0 (antibody, human IgG1, kappa)
heavy 1: not shown
heavy 2: not shown
light: B1 light
notes: as for B27
B32: GpH7-A5/GpH7-B3 variant S337_07I/GpL16-k0 (antibody, human IgG1, kappa)
heavy 1: not shown
heavy 2: not shown
light: B1 light
notes: as for B27
B33: GpH7-A5/GpH7-B3 variant S337_09D/GpL16-k0 (antibody, human IgG1, kappa)
heavy 1: not shown
heavy 2: not shown
light: B1 light
notes: as for B27
B34: GpH7-A5/GpH7-B3 variant S337_10E/GpL16-k0 (antibody, human IgG1, kappa)
heavy 1: not shown
heavy 2: not shown
light: B1 light
notes: as for B27
B35: GpH7-A5/GpH7-B3 variant S337_15Y/GpL16-k0 (antibody, human IgG1, kappa)
heavy 1: not shown
heavy 2: not shown
light: B1 light
notes: as for B27
B36: GpH7-A5/GpH7-B3 variant S337_16H/GpL16-k0 (antibody, human IgG1, kappa)
heavy 1: not shown
heavy 2: not shown
light: B1 light
notes: as for B27
B37: GpH7-A5/GpH7-B3 variant S337_18N/GpL16-k0 (antibody, human IgG1, kappa)
heavy 1: not shown
heavy 2: not shown
light: B1 light
notes: as for B27
B38: GpH7-A5/GpH7-B3 variant S337_19Q/GpL16-k0 (antibody, human IgG1, kappa)
heavy 1: not shown
heavy 2: not shown
light: B1 light
notes: as for B27
B39: GpH7-A5/GpH7-B3 variant S337_20W/GpL16-k0 (antibody, human IgG1, kappa)
heavy 1: not shown
heavy 2: not shown
light: B1 light
notes: as for B27
B40: GpH7-A5/GpH7-B3 variant T335_02A/GpL16-k0 (antibody, human IgG1, kappa)
heavy 1: not shown
heavy 2: not shown
light: B1 light
notes: as for B27
B41: GpH7-A5/GpH7-B3 variant T335_05P/GpL16-k0 (antibody, human IgG1, kappa)
heavy 1: not shown
heavy 2: not shown
light: B1 light
notes: as for B27
B42: GpH7-A5/GpH7-B3 variant T335_07I/GpL16-k0 (antibody, human IgG1, kappa)
heavy 1: not shown
heavy 2: not shown
light: B1 light
notes: as for B27
B43: GpH7-A5/GpH7-B3 variant T335_10E/GpL16-k0 (antibody, human IgG1, kappa)
heavy 1: not shown
heavy 2: not shown
light: B1 light
notes: as for B27
B44: GpH7-A5/GpH7-B3 variant T335_13S/GpL16-k0 (antibody, human IgG1, kappa)
heavy 1: not shown
heavy 2: not shown
light: B1 light
notes: as for B27

Target: T2, FcγRIa (human, UniProt P12314 16-292)
T2 construct: extracellular domain; also called FcgRI; CD64
Assay: SPR; vs GpH7-B3/GpL16-k0=100

T2 sequence (P12314 16-292): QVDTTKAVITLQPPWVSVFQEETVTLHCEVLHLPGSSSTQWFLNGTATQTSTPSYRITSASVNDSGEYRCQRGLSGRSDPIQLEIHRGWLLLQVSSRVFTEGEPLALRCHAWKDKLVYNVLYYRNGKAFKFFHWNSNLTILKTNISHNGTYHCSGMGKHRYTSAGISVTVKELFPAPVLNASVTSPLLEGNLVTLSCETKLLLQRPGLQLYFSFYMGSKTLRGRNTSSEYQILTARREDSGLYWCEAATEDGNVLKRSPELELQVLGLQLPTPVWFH

Row | Binder | Ho/Con_1a
1 | B1 | 102 % of control
2 | B2 | 94.4 % of control
3 | B3 | 93.1 % of control
4 | B4 | 95.5 % of control
5 | B5 | 102 % of control
6 | B6 | 98.8 % of control
7 | B7 | 86.1 % of control
8 | B8 | 84.4 % of control
9 | B9 | 106 % of control
10 | B10 | 108 % of control
11 | B11 | 94.1 % of control
12 | B12 | 105 % of control
13 | B13 | 104 % of control
14 | B14 | 97.4 % of control
15 | B15 | 96.2 % of control
16 | B16 | 95.4 % of control
17 | B17 | 95.7 % of control
18 | B18 | 101 % of control
19 | B19 | 97.1 % of control
20 | B20 | 101 % of control
21 | B21 | 106 % of control
22 | B22 | 95.9 % of control
23 | B23 | 96.2 % of control
24 | B24 | 100 % of control
25 | B25 | 98.4 % of control
26 | B26 | 92.7 % of control

Target: T1, FcγRIIa R (extracellular domain with a …)
Assay: SPR Biacore, relative binding

Row | Binder | He/Con_2aR
27 | B27 | 135 % of GpH7-A5/GpH7-B3/GpL16-k0 (=100)
28 | B28 | 105 % of GpH7-A5/GpH7-B3/GpL16-k0 (=100)
29 | B29 | 123 % of GpH7-A5/GpH7-B3/GpL16-k0 (=100)
30 | B30 | 106 % of GpH7-A5/GpH7-B3/GpL16-k0 (=100)
31 | B31 | 105 % of GpH7-A5/GpH7-B3/GpL16-k0 (=100)
32 | B32 | 109 % of GpH7-A5/GpH7-B3/GpL16-k0 (=100)
33 | B33 | 115 % of GpH7-A5/GpH7-B3/GpL16-k0 (=100)
34 | B34 | 112 % of GpH7-A5/GpH7-B3/GpL16-k0 (=100)
35 | B35 | 105 % of GpH7-A5/GpH7-B3/GpL16-k0 (=100)
36 | B36 | 109 % of GpH7-A5/GpH7-B3/GpL16-k0 (=100)
37 | B37 | 107 % of GpH7-A5/GpH7-B3/GpL16-k0 (=100)
38 | B38 | 106 % of GpH7-A5/GpH7-B3/GpL16-k0 (=100)
39 | B39 | 110 % of GpH7-A5/GpH7-B3/GpL16-k0 (=100)
40 | B40 | 102 % of GpH7-A5/GpH7-B3/GpL16-k0 (=100)
41 | B41 | 104 % of GpH7-A5/GpH7-B3/GpL16-k0 (=100)
42 | B42 | 109 % of GpH7-A5/GpH7-B3/GpL16-k0 (=100)
43 | B43 | 111 % of GpH7-A5/GpH7-B3/GpL16-k0 (=100)
44 | B44 | 110 % of GpH7-A5/GpH7-B3/GpL16-k0 (=100)
